Measurements published in PMC2790157.

B1: NF-kB consensus (dsDNA)
DNA 1: AGTTGAGGGGACTTTCCCAGGC
DNA 2: GCCTGGGAAAGTCCCCTCAACT
B2: ING2 promoter putative NF-kB site (dsDNA)
DNA 1: CGCCGAGGGGATCCCCACTGCT
DNA 2: AGCAGTGGGGATCCCCTCGGCG

Target: NF-kB p50 (UniProt P19838 1-433)
Test: EMSA

NF-kB p50, sequence (P19838 1-433): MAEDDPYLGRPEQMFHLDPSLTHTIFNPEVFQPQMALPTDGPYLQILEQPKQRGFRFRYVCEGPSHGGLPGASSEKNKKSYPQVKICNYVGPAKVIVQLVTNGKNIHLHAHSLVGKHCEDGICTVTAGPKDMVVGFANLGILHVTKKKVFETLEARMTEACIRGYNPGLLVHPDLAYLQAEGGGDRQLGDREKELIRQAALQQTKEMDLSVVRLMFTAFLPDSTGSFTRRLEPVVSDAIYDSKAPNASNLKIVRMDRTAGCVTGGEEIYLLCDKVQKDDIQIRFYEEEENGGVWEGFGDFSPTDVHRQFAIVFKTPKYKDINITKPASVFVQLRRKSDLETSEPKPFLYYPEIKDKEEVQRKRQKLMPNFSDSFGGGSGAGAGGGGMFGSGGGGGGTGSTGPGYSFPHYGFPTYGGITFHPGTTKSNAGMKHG

| Binder | binding result |
| --- | --- |
| B1 | binds |
| B2 | binds |
